Measured values taken from IntAct's records for PubMed 18423204.

B1: Catenin beta-1 (Mus musculus), Q02248 (parent)
chain: MATQADLMELDMAMEPDRKAAVSHWQQQSYLDSGIHSGATTTAPSLSGKGNPEEEDVDTSQVLYEWEQGFSQSFTQEQVADIDGQYAMTRAQRVRAAMFPETLDEGMQIPSTQFDAAHPTNVQRLAEPSQMLKHAVVNLINYQDDAELATRAIPELTKLLNDEDQVVVNKAAVMVHQLSKKEASRHAIMRSPQMVSAIVRTMQNTNDVETARCTAGTLHNLSHHREGLLAIFKSGGIPALVKMLGSPVDSVLFYAITTLHNLLLHQEGAKMAVRLAGGLQKMVALLNKTNVKFLAITTDCLQILAYGNQESKLIILASGGPQALVNIMRTYTYEKLLWTTSRVLKVLSVCSSNKPAIVEAGGMQALGLHLTDPSQRLVQNCLWTLRNLSDAATKQEGMEGLLGTLVQLLGSDDINVVTCAAGILSNLTCNNYKNKMMVCQVGGIEALVRTVLRAGDREDITEPAICALRHLTSRHQEAEMAQNAVRLHYGLPVVVKLLHPPSHWPLIKATVGLIRNLALCPANHAPLREQGAIPRLVQLLVRAHQDTQRRTSMGGTQQQFVEGVRMEEIVEGCTGALHILARDVHNRIVIRGLNTIPLFVQLLYSPIENIQRVAAGVLCELAQDKEAAEAIEAEGATAPLTELLHSRNEGVATYAAAVLFRMSEDKPQDYKKRLSVELTSSLFRTEPMAWNETADLGLDIGAQGEALGYRQDDPSYRSFHSGGYGQDALGMDPMMEHEMGGHHPGADYPVDGLPDLGHAQDLMDGLPPGDSNQLAWFDTDL

Variants of: B1
Details: with MAPK9, P45984-1

effect of a mutation on the interaction	Variant
disrupting interaction	S191A
decreasing interaction	S605A
disrupting interaction	S191A;S246A;S605A
decreasing interaction	S246A
